Experimental data reported in patent US20220275089A1 (AKESO PHARMACEUTICALS, published 2022).

Columns and labels:
[1] = biological target: T1, FcγRI (UniProt P12314 16-288, limits assumed); test: BLI (Fortebio Octet), FcγRI on HIS1K sensor, antibody 3.12-50 nM, 1:1 fit
T1 construct: construct not described; also called CD64; FcγR1
Method: (§1) A 1 μg/mL FcγRI solution (from Sinobio) was added to the HIS1K sensor to immobilize the FcγRI on the sensor surface for 50 s. […] The sensor with immobilized antigen was equilibrated in the buffer for 60 s, and then the binding of the immobilized FcγRI on the sensor to the antibodies was determined for 120 s; the dissociation of FcγRI from the antibodies was determined in 120 s. The temperature was 30° C. and the frequency was 0.3 Hz. The data were fitted and analyzed with a 1:1 model to obtain the affinity constants to FcγRI for the antibodies.

[2] = biological target: T2, C1q (UniProt P02745 23-245; P02746 28-253; P02747 29-245); test: BLI (Fortebio Octet), antibody on FAB2G sensor, C1q 1.25-20 nM, 1:1 fit
T2 construct: also called serum complement C1q; complement C1q
T2 sequence (P02745 23-245 limits assumed, chain 1 of 3): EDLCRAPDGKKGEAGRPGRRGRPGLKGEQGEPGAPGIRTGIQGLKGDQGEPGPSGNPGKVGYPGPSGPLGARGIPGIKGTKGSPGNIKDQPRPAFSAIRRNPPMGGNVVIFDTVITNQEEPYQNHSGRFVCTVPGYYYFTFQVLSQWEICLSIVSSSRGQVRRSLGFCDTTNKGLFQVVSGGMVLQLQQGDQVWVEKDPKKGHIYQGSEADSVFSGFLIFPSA
T2 sequence (P02746 28-253 limits assumed, chain 2 of 3): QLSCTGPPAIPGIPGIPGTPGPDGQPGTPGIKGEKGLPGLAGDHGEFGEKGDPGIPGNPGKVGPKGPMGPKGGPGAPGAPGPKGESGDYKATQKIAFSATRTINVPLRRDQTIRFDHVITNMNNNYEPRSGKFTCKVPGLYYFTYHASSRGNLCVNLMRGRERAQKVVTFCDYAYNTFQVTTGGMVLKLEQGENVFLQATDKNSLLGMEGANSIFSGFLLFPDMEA
T2 sequence (P02747 29-245 limits assumed, chain 3 of 3): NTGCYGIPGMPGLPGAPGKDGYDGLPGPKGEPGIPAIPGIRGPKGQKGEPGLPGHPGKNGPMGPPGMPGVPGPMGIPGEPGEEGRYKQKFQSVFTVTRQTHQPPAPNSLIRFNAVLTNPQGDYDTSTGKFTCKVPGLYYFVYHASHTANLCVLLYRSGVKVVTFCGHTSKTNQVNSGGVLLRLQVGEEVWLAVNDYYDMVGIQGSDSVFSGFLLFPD
Method: (§2) 50 μg/mL antibody was immobilized on the FAB2G sensor at an immobilization height of about […]. […] The antigen and antibody were dissociated in the buffer for 60 s. The sensor was refreshed 4 times in 10 mM glycine pH 1.7, each for 5 s. The shaking speed of the sample plate was 1000 rpm, the temperature was 30° C. and the frequency was 0.6 Hz. The data were analyzed by 1:1 model fitting to obtain affinity constants. The data acquisition software was Fortebio Data Acquisition 7.0, and the data analysis software was Fortebio Data Analysis 7.0.

[3] = biological target: T3, FcγRIIb (UniProt P31994 43-217, limits assumed); test: BLI (Fortebio Octet), FcγRIIb on NTA sensor, antibody 12.5-200 nM, 1:1 fit
T3 construct: also called CD32b
T3 sequence (looked up): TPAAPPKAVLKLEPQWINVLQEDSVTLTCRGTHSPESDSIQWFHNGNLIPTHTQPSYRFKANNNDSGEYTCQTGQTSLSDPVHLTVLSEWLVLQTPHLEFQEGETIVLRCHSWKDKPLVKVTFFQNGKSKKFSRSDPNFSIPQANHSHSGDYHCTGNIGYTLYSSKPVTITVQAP
Method: (§3) 5 μg/mL FcγRIIb was immobilized on the NTA sensor at an immobilization height of about 1.0 nm. […] The antibody was dissociated in the buffer for 60 s. The sensor was refreshed in 10 mM glycine pH 1.7 and 10 nM nickel sulfate. The temperature was 30° C. and the frequency was 0.6 Hz. The data were analyzed by 1:1 model fitting to obtain affinity constants.

[4] = biological target: T4, FcγRIIIa_V158 (UniProt P08637 17-208); test: BLI (Fortebio Octet), FcγRIIIa_V158 immobilized on HIS1K sensor, antibody in solution at 31.25-500 nM
T4 construct: V158 polymorphic form (mature numbering)
T4 sequence (P08637 17-208 F176V limits assumed): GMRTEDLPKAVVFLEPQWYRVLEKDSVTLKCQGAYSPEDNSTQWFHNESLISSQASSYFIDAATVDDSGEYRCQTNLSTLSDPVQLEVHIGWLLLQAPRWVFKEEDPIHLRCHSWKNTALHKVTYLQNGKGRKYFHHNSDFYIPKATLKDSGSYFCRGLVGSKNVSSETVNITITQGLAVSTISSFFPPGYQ
Method: (§4) 5 μg/mL FcγRIIIa_V158 was immobilized on the HIS1K sensor for 120 s. […] The antibody was dissociated in the buffer for 60 s. The sensor was refreshed 4 times in 10 mM glycine pH 1.5, each for 5 s. The temperature was 30° C. and the frequency was 0.3 Hz. The data were analyzed by 1:1 model fitting to obtain affinity constants.

[5] = biological target: T3, FcγRIIb; test: BLI (Fortebio Octet), FcγRIIb immobilized on NTA sensor, antibody in solution at 12.5-200 nM
Method: as §3

[6] = biological target: T1, FcγRI; test: BLI (Fortebio Octet), FcγRI immobilized on HIS1K sensor, antibody in solution at 3.12-50 nM
Method: as §1

[7] = biological target: T5, FcγRIIa_H131 (UniProt P12318 34-218); test: BLI (Fortebio Octet), FcγRIIa_H131 immobilized on NTA sensor, antibody in solution at 12.5-200 nM
T5 construct: H131 polymorphic form
T5 sequence (looked up): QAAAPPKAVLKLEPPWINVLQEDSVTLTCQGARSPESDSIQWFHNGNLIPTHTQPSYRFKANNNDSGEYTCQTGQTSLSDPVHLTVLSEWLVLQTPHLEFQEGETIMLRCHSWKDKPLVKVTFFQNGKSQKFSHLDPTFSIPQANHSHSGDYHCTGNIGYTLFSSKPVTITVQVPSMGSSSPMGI
Method: as §3, with “FcγRIIa_H131” for “FcγRIIb”

[8] = biological target: T6, FcγRIIIa_F158 (UniProt P08637 17-208); test: BLI (Fortebio Octet), FcγRIIIa_F158 immobilized on HIS1K sensor, antibody in solution at 31.25-500 nM
T6 construct: F158 polymorphic form
T6 sequence (P08637 17-208 limits assumed): as the sequence (P08637 17-208 F176V limits assumed) above, with V160F counted along it
Method: as §4, with “FcγRIIIa_F158” for “FcγRIIIa_V158”

[9] = biological target: T2, C1q; test: BLI (Fortebio Octet), antibody immobilized on FAB2G sensor, C1q in solution at 1.25-20 nM
Method: as §2

T1 sequence (P12314 16-288 limits assumed): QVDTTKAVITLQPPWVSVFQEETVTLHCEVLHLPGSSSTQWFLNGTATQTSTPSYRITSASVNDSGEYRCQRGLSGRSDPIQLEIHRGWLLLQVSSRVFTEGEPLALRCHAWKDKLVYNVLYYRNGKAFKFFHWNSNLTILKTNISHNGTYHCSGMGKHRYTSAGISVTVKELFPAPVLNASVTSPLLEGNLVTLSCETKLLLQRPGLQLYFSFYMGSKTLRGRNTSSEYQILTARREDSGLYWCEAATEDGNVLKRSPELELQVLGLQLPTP

Binder | Kd [1] | Kd [2] | Kd [3] | binding result [4] | binding result [5] | binding result [6] | binding result [7] | binding result [8] | binding result [9] | koff [2] | kon [2]
BiAb004(hG1WT) (bispecific antibody, human IgG1, kappa, IgG-scFv (Morrison format); also called BiAb004(M); BiAh004(M)) heavy: not shown light: DIQMTQSPSSMSASVGDRVTFTCRASQDINTYLSWFQQKPGKSPKTLIYRANRLVSGVPSRFSGSGSGQDYTLTISSLQPEDMATYYCLQYDEFPLTFGAGTKLELKRTVAAPSVFIFPPSDEQLKSGTASVVCLLNNFYPREAKVQWKVDNALQSGNSQESVTEQDSKDSTYSLSSTLTLSKADYEKHKVYACEVTHQGLSSPVTKSFNRGEC | 5.92 nM | 2.53 nM | 56.1 nM |  |  |  |  |  |  |  | 
BiAb004(hG1TM) (bispecific antibody, human IgG1, kappa, IgG-scFv (Morrison format), anti-PD-1 IgG1 with an anti-CTLA4 scFv on the C terminus of each heavy chain) heavy: not shown light: DIQMTQSPSSMSASVGDRVTFTCRASQDINTYLSWFQQKPGKSPKTLIYRANRLVSGVPSRFSGSGSGQDYTLTISSLQPEDMATYYCLQYDEFPLTFGAGTKLELKRTVAAPSVFIFPPSDEQLKSGTASVVCLLNNFYPREAKVQWKVDNALQSGNSQESVTEQDSKDSTYSLSSTLTLSKADYEKHKVYACEVTHQGLSSPVTKSFNRGEC |  |  |  | no binding (tested: 500 nM) | no binding (tested: 200 nM) | no binding (tested: 50 nM) | no binding (tested: 200 nM) | no binding (tested: 500 nM) | no binding (tested: 20 nM) |  | 
5C10H2L2-IgG1mt (antibody) chain 1: not shown chain 2: EIVLTQSPDTLSVTPKEKVTLTCRASQSIGTNIHWFQQKPGQSPKLLIKYASESISGVPSRFSGSGSGTDFTLTINSVEAEDAATYYCQQSNSWPYTFGQGTKLEIKRTVAAPSVFIFPPSDEQLKSGTASVVCLLNNFYPREAKVQWKVDNALQSGNSQESVTEQDSKDSTYSLSSTLTLSKADYEKHKVYACEVTHQGLSSPVTKSFNRGEC |  | 4.43 nM |  |  |  |  |  |  |  | 0.0105 s⁻¹ | 2.38e+06 M⁻¹ s⁻¹
